Measurements reported in US20070184522A1, “Cell death modulation via antagonists of Fasl and Fas activation” (University of Pittsburgh of the Commonwealth System of …, priority 2004, published 2007).
“Also recorded” adds a separate entry of the source.

T1: Fas-Fc / Fas ligand binding (Mus musculus, UniProt P25446)
T1 construct: purchased R&D
T1 sequence (P25446 22-169 limits assumed): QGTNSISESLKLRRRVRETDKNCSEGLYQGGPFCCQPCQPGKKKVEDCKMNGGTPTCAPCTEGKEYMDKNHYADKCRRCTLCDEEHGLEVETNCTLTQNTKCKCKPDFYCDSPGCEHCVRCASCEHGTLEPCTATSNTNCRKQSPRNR

B1: alpha subunit of Met (AlphaMet), amino acid residues 1 to 306, His-tagged (receptor, mouse)
chain: MKAPTVLAPGILVLLLSLVQRSHGECKEALVKSEMNVNMKYQLPNFTAETPIQNVVLHGHHIYLGATNYIYVLNDKDLQKVSEFKTGPVLEHPDCLPCRDCSSKANSSGGVWKDNINMALLVDTYYDDQLISCGSVNRGTCQRHVLPPDNSADIQSEVHCMFSPEEESGQCPDCVVSALGAKVLLSEKDRFINFFVGNTINSSYPPGYSLHSISVRRLKETQDGFKFLTDQSYIDVLPEFLDSYPIKYIHAFESNHFIYFLTVQKETLDAQTFHTRIIRFCSVDSGLHSYMEMPLECILTEKRRKRHHHHHH

Legend:
[1] = molecular target: T1, Fas-Fc / Fas ligand binding; test: Competition ELISA: coated Fas ligand, Fas-Fc added with increasing amounts of polypeptide; conditions: Fas ligand 1 μg/ml coated, Fas-Fc 1 μg/ml
Method: This antibody also recognizes Fas-Fc which is also tagged at the C-terminus by His. In FIG. 2b, a fixed amount of purified recombinant Fas-ligand was added to Fas-Fc in the absence or presence of increasing amounts of AlphaMet as indicated. Samples were subjected to pull down using proteinA agarose followed by Western blot using a polyclonal rabbit anti-FasL antibody. […] Fas ligand (1 μg/ml) was coated in the wells of a microtiter plate (triplicate wells) then 1 μg/ml of Fas-Fc was added in the absence or presence of an increasing amount of the indicated polypeptide. A 13 mer YLGA polypeptide derived from FasL also was synthesized and used. The control peptide was a scrambled 13 mer. Anti human IgM-HRP conjugates were used to detect the bound Fas-Fc. […] One-way ANOVA was carried out for determination of statistical significance. […] Cells (3×10^5) were plated in 24-well plates having Poly-L-Lysine pre-treated cover glass. 2 μg/ml of Fas ligand was added and the cells were incubated for 30 min on ice. Cells were then washed by PBS twice, and were subjected to immunostaining using anti-Fas ligand antibody and fluorescent microscopy. In Frame A, Fas ligand was not added, in B, only Fas ligand was added, in C-F, Fas ligand was added with different polypeptides as follows: AlphaMet, 12 mer YLGA, control peptide, and YLGA mutated AlphaMet, respectively.
ELISA. Synthesized polypeptides (Genemed Synthesis, Inc. South San Francisco, Calif.) were dissolved in water and diluted in the coating buffer (0.05M of Sodium Carbonate, 0.02% of Sodium Azide, pH 9.6) to a final concentration of 1 ug/ml. One hundred microliter aliquots were added to coat each well of a 96-well microtitre plate. The coated plates were then washed with PBS-Tween (0.5%) three times. The plates were blotted and dried by tapping upside down on tissue paper. They were blocked using 200 μl of 1% of BSA in PBS solution followed by a 2 hour incubation. Plates were washed another three times, Fas-Fc was added, and the plates were incubated for another 2 hours. The plates were washed three times and anti-human IgM Fc HRP conjugates were included at a final concentration of 1:20,000, and incubated for 1 hour. Plates were washed three times again and ready-to-use TMD was added and incubated for 30 minutes. The color reaction was stopped by 2M of Sulfuric Acid. Plates were applied to color read at a wave length of 450 nm.

[2] = system: Fas capping in Hepa 1-6 cells; test: Fas capping of fluorescent protein tagged Fas in Hepa 1-6 cells; format: cell-based; conditions: for FasL-induced Fas capping: Hepa 1-6, FasL 1 μg/ml, AlphaMet 5 μg/ml or YLGA 12 mer 1 μg/ml, 30 minutes; for Jo2-induced Fas capping/clustering: Hepa 1-6, Jo2 100 ng/ml
Method: FIG. 3a presents data collected from Jurkat cells (1×10^6) treated with 2 μg/ml of Fas Ligand with or without AlphaMet for 30 minutes on ice. Cells were washed with PBS twice and then incubated with 2 mM of DTSSP in PBS for 30 minutes. The crosslinking process was stopped by 20 mM of Tris (pH 7.5) for another 30 minutes. Cells were spun down and washed with PBS twice and lyzed in RIPA buffer. Cell lysates were subjected to SDS-PAGE under non-reducing or reducing conditions (FIG. 3b) and Western blot analysis using the mouse monoclonal antibody against human Fas. FIG. 3c depicts the quantification of the data in FIG. 3a by densitometry. The data are the mean and SE from three different independent crosslinking and Western blot experiments. […] Frame A: Acceptor CFP-Fas image; Frame B: Acceptor pre-bleach CFP-Fas image; Frame C: Acceptor post-bleach image. Frame D: Donor YFP-Fas image; Frame E: Donor pre-bleach image; Frame F: […]. The CFP-Fas strength in the selected region obtained a gain of 19.3% efficiency in the presence of FasL for 15 minutes. No FRET was observed without FasL. […] FIG. 3e depicts the results of experiments in which CFP-tagged Fas or CFP control vector were transiently expressed in Hepa 1-6 Cells (3×10^5). Cells were treated with 1 μg/ml of Fas ligand or 100 ng/ml of Jo2 with or without 5 μg/ml of AlphaMet or 1 μg/ml of YLGA 12 mer for 30 minutes on ice. Cells were fixed and analyzed by fluorescence microscopy. Frame A: AlphaMet treatment only, no FasL; Frame B: Fas ligand treatment only; Frame C: Fas ligand and AlphaMet treatment; Frame D: Fas ligand and 12 mer YLGA; Frame E: Jo2 treatment only and Frame F: Jo2 and AlphaMet treatment.
Fluorescence protein tagged Fas molecules and Hepa 1-6 cells were used for these experiments. These cells were transiently co-transfected with CFP and YFP chimeric Fas expression vectors using the lipofectamine 2000 method (Invitrogen). After 24 hours of transfection, about 50% of the cells were fluorescing. The cells were treated by Fas-ligand in the presence or absence of AlphaMet for 30 minutes. Treated cells were then fixed with cold methanol and subjected to FRET analysis. Cells were considered positive if FRET efficiency was over 10%. FRET phenomenon was observed only in cells that were treated with Fas-ligand. […] In these experiments the percent of Fas capping was also determined.

Molecule	inhibition of FasL binding to Fas-Fc (ELISA) [1]	FasL-induced Fas capping [2]	Jo2-induced Fas capping/clustering [2]
HHIYLGATNYIY [12 mer]	significantly inhibited FasL binding	inhibited to the background level	reduced Jo2-induced Fas capping
YLGA [YLGA 4 mer]	lower, yet significant inhibition	–	–
B1	–	inhibited to the background level	also inhibited; also recorded: reduced Jo2-induced Fas capping
